The record followed here is patent publication US20220064286A1 (Genentech, published 2022).

A value given as a limit tells only on which side of the number the result lay.

The target of test [1] is T1, mu TIGIT (target named for 10A7 in the heads of Tables 6 and 7) (mu (mouse), UniProt P86176 29-249, limits assumed).
T1 construct: Only the column head says mu TIGIT; the text describes no mouse TIGIT cells
T1 sequence (looked up): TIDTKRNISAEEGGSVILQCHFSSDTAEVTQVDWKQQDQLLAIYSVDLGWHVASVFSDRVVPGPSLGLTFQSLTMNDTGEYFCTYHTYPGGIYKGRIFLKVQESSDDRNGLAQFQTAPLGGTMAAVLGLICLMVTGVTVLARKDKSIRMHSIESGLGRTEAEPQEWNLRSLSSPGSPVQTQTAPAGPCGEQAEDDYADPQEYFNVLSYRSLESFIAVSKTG
The test is described as follows: FACS, CHO cells expressing TIGIT.

In test [2] the target is T1, mu TIGIT (target named for 10A7 in the …). The test is described as follows: FACS, PVR-Fc on CHO-TIGIT cells; competitor PVR-Fc. As to the method: These studies were further validated in CHO-TIGIT PVR blocking experiments in which TIGIT-expressing CHO cells were incubated with labeled PVR-Fc fusion protein in the presence of anti-TIGIT antibody or an human IgG1 control (FIG. 4A).

The target in test [3] is T2, human TIGIT-AviFlag-biotin (human, UniProt Q495A1 22-141, biotin).
T2 sequence: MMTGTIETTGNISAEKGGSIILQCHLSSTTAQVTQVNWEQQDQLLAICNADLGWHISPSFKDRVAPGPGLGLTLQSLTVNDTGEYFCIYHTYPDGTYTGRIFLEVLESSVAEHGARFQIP
The test is described as follows: Block ELISA Human PVR-Fc:Bio-TIGIT-AviFlag (blocked ligand human PVR-Fc). As to the method: (§1) To test for the ability of the clones to block the TIGIT-PVR interaction, a blocking ELISA assay was used. Briefly, recombinant human PVR-Fc fusion protein, cynomolgus monkey PVR-Fc fusion protein, or mouse PVR-Fc fusion protein was coated at 4 μg/ml at 25 μl/well in phosphate-buffered saline (PBS, pH 7.0) onto 384-well Maxisorp microtiter plates (NUNC, Denmark) and incubated overnight at 4° C. The coating solution was then discarded and the plate was blocked using 0.5% bovine serum albumin (BSA) in PBS at 80 μl/well and incubated with gentle agitation for 1 hour. Titration curves of anti-TIGIT and Fab isotype control antibodies were diluted in assay buffer (PBS, 0.5% BSA, 0.05% Tween 20) using 12 serial 2.5-fold dilutions (40000-1.7 ng/mL). […] The plate was then washed 6× with wash buffer and bound human TIGIT-AviFlag-biotin, cyno TIGIT-AviFlag-biotin, or mouse TIGIT-His was detected by adding 25 μl/well of horseradish peroxidase-conjugated streptavidin (1:10000, Amersham, UK) or horseradish peroxidase-conjugated mouse anti-His (1:2500, Qiagen, Germany) diluted in assay buffer. […] Absorbance was read at 450 nm on a […] ASCENT® microtiter plate reader (Thermo Labsystems, Helsinki, Finland). Fit curves were plotted from the resulting optical density values from the ELISA plates and IC50s were calculated using Genedata Screener software (Genedata, Switzerland).

Test [4] deals with T3, cynomolgus TIGIT-AviFlag-biotin (cynomolgus monkey, UniProt A0A7N9I9V4 89-209, biotin).
T3 construct: also called cyno TIGIT-AviFlag-biotin
The test can be described thus: Block ELISA Cyno PVR-Fc:Bio-TIGIT-AviFlag (blocked ligand cyno PVR-Fc). As to the method: as §1

The next test deals with T4, mouse TIGIT-His (mouse, UniProt P86176 29-148, limits assumed).
T4 sequence (looked up): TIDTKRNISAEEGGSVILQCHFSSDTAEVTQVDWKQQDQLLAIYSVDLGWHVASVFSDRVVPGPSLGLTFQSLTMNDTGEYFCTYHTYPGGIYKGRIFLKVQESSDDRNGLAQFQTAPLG
The test can be described thus: Block ELISA Mouse PVR-Fc:TIGIT-His (blocked ligand mouse PVR-Fc). As to the method: as §1

T3 sequence (A0A7N9I9V4 entry or part of it): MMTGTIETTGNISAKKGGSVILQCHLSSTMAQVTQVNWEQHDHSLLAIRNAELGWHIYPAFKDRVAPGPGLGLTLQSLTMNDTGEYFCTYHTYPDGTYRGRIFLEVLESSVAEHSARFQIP

B1: 10A7 (antibody, V domains shown)
VH: EVQLVESGGGLTQPGKSLKLSCEASGFTFSSFTMHWVRQSPGKGLEWVAFIRSGSGIVFYADAVRGRFTISRDNAKNLLFLQMNDLKSEDTAMYYCARRPLGHNTFDSWGQGTLVTVSS
VL: DIVMTQSPSSLAVSPGEKVTMTCKSSQSLYYSGVKENLLAWYQQKPGQSPKLLIYYASIRFTGVPDRFTGSGSGTDYTLTITSVQAEDMGQYFCQQGINNPLTFGDGTKLEIKR
B1 came in with a concentration for a half-maximal effect (EC50) in test [1] of 0.54 nM. The IC50 in test [2] was found to be 0.07 nM.

B2: 4.1D3.Q1E (antibody, V domains shown)
VH: EVQLQQSGPGLVKPSQTLSLTCAISGDSVSSNSAAWNWIRQSPSRGLEWLGKTYYRFKWYSDYAVSVKGRITINPDTSKNQFSLQLNSVTPEDTAVFYCTRESTTYDLLAGPFDYWGQGTLVTVSS
VL: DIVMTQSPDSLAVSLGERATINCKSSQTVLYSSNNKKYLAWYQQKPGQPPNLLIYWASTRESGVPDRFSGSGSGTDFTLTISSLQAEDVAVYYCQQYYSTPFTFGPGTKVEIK
With B2, the IC50 is 6.9 nM in test [3], 2.6 nM in test [4] and more than 133 nM with mouse TIGIT-His.
